Experimental data from PMC11484706.

What was measured:
Experiment in all cases: PU-beads capture (affinity pull-down), immunoblot band quantification
Details in all cases: HEK293 cells transfected with the mutant; n = 3; input = 2% of protein incubated with the beads; read off a plot
[1] = target: AHA1 (endogenous, HEK293)
[2] = target: HSP110 (endogenous, HEK293)
[3] = target: PU-beads (PU-H71 epichaperome affinity probe)
HOP (endogenous, HEK293) = target: HOP (endogenous, HEK293)

response (normalized to MDA-MB-468) [1]: 0.65 | response (normalized to MDA-MB-468) [2]: 0.63 | response (normalized to MDA-MB-468) [3]: 0.65 | response (normalized to MDA-MB-468) (HOP (endogenous, HEK293)): 0.25
Substance: mCherry WT HSP90β (HEK293) S226A; S255A
